Data: doi:10.1101/2020.06.02.095570 (bioRxiv, 2020)

B1: dehydrodolichyl diphosphate synthase (DHDDS), full-length human (enzyme)
chain: MSWIKEGELSLWERFCANIIKAGPMPKHIAFIMDGNRRYAKKCQVERQEGHSQGFNKLAETLRWCLNLGILEVTVYAFSIENFKRSKSEVDGLMDLARQKFSRLMEEKEKLQKHGVCIRVLGDLHLLPLDLQELIAQAVQATKNYNKCFLNVCFAYTSRHEISNAVREMAWGVEQGLLDPSDISESLLDKCLYTNRSPHPDILIRTSGEVRLSDFLLWQTSHSCLVFQPVLWPEYTFWNLFEAILQFQMNHSVLQKARDMYAEERKRQQLERDQATVTEQLLREGLQASGDAQLRRTRLHKLSARREERVQGFLQALELKRADWLARLGTASA
B2: sNgBRΔ167*-175* (soluble Nogo-B receptor, residues 73*-293*, loop 167-175 removed) (domain or fragment)
chain: RGGSCLAAAHHRMRWRADGRSLEKLPVHMGLVITEVEQEPSFSDIASLVVWCMAVGISYISVYDHQGIFKRNNSRLMDEILKQQQELLGLDCSKDKDDQVLNCHLAVKVLSPEDGKADIVRAAQDFCQLVAQKQKRPTDLDVDTLASLLSSNGCPDPDLVLKFGPVDSTLGFLPWHIRLTEIVSLPSHLNISYEDFFSALRQYAACEQRLGK

Experiments:
cross-linking = molecular target: the molecule itself; assay: cross-linking
[1] = molecular target: B1; assay: crystal structure

| binding result [1] | Binder | binding result (cross-linking) |
| --- | --- | --- |
|  | B1 | binds |
| binds | B2 |  |
